# Patent US9994626B2, “Stable polypeptides binding to human complement C5” (Swedish Orphan Biovitrum AB (publ), priority 2013, dated 2018)
# B1: PSI0383: C5 binding compound with N52S, D53E, D60E and loop [L2] substitutions D36R, D37Q, S39E (protein)
# chain: AEAKYAKEVLEAWDEIDRLPNLTIEQWLAFINKLDRQPEQSSELLSEAKKLSESQAPKVEGSLAEAKEAANAELDSYGVSDFYKRLIDKAKTVEGVEALKDAILAALP
# modifications: Modified bacterial sequence
# Experiments:
# [1] = 3 month stability test at 37° C., RPC; type: physicochemical
# Description: The 2 weeks data from example 2 is included in Table VIII below to make the interpretation easier.
# [2] = Accelerated stability study, 2 weeks at 37° C., SDS-PAGE and Reversed Phase HPLC (RPC)
# Description: The stability was measured by the appearance of new variants after the stability testing by SDS-PAGE and Reversed Phase HPLC (RPC). In both analyses the initial sample and the one subjected to the stability study were run in parallel. For the SDS-PAGE, 7.5 μg protein was loaded into each well.
# The purified proteins were formulated in 25 mM NaP/125 mM NaCl pH 7.0 and subjected to an accelerated stability study for 2 weeks at 37° C. The stability was measured by the appearance of new variants after the stability testing by SDS-PAGE and Reversed Phase HPLC (RPC). In both analyses the initial sample and the one subjected to the stability study were run in parallel. For the SDS-PAGE, 7.5 μg protein was loaded into each well.
# [3] = after 2 weeks at 37° C., 25 mM NaP/125 mM NaCl pH 7.0
molecule,measurement,setting,value
B1,"3 months, 37° C. Main peak (% of total protein)","[1]; RPC, 3 months, 37° C.",59 % of total protein
same,proportion of protein in the original form after 3 months at 37° C. versus PSI0242 after 2 weeks,[1]; result in words,higher proportion of protein in the original form
same,stability when compared with PSI0242,"[2]; 2 weeks at 37° C., conclusion in words",increased stability
same,Main peak (% of total protein),"[2]; RPC after 2 weeks at 37° C., 25 mM NaP/125 mM NaCl pH 7.0",91 % of total protein
same,"2 weeks, 37° C. Main peak (% of total protein)","[2]; RPC, 2 weeks, 37° C., data from example 2",91 % of total protein
same,RPC post peaks,[2]; [3],0
same,RPC prepeaks,[2]; [3],0
same,SDS-PAGE bands,[2]; [3],1
